Measured values reported in the supplement of paper PMC9112550, “Optimization of the antimicrobial peptide Bac7 by deep mutational scanning” (BMC Biology, 2022).

Tested on: Escherichia coli TOP10
Assay: shrunken log2 fold change of peptide-encoding DNA abundance (4.5 h post-induction vs induction); higher = less antimicrobial activity (less host growth inhibition)
Settings: time post-induction: 4.5 h; library: site-saturation at positions 5, 18, 19, 20
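Note: peptides expressed intracellularly from a pBAD plasmid library in pooled LB shake-flask culture, induced with 0.3% L-arabinose, DNA abundance read by NGS, three biological replicates, DESeq2 with apeglm shrinkage.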

Sequence	shrunken log2 fold change
RRIRDRPPRLPRPRPRPYHWPRP	0.0299
RRIRTRPPRLPRPRPRPEMQPRP	-0.00136
RRIRVRPPRLPRPRPRPIWKPRP	-0.168
RRIRMRPPRLPRPRPRPSWVPRP	0.051
RRIRHRPPRLPRPRPRPQTVPRP	-0.495
RRIRPRPPRLPRPRPRPMDYPRP	-0.165
RRIRERPPRLPRPRPRPVPDPRP	0.268
RRIRRRPPRLPRPRPRPEEGPRP	0.00715
RRIRNRPPRLPRPRPRPYQFPRP	-0.225
RRIRYRPPRLPRPRPRPGKKPRP	-0.00101
RRIRWRPPRLPRPRPRPGVHPRP	0.135
RRIRGRPPRLPRPRPRPWQFPRP	0.0819
RRIRERPPRLPRPRPRPVVNPRP	-0.257
RRIRYRPPRLPRPRPRPTKHPRP	-0.896
RRIRIRPPRLPRPRPRPTLPPRP	0.0197
RRIRARPPRLPRPRPRPPPPPRP	1.46
RRIRKRPPRLPRPRPRPQQYPRP	0.183
RRIRHRPPRLPRPRPRPRASPRP	0.286
RRIRRRPPRLPRPRPRPHQQPRP	-0.0551
RRIRGRPPRLPRPRPRPPQFPRP	0.676
RRIRIRPPRLPRPRPRPYCGPRP	-0.179
RRIRGRPPRLPRPRPRPEMQPRP	1.41
RRIRNRPPRLPRPRPRPHHWPRP	-0.0959
RRIRGRPPRLPRPRPRPSRVPRP	0.61
RRIRDRPPRLPRPRPRPIPNPRP	0.0139

Sequence	shrunken log2 fold change
RRIRWRPPRLPRPRPRPYMNPRP	-1.44
RRIRIRPPRLPRPRPRPYVTPRP	-0.526
RRIRQRPPRLPRPRPRPTYLPRP	-0.562
RRIRRRPPRLPRPRPRPDENPRP	0.118
RRIRVRPPRLPRPRPRPAFTPRP	-0.124
RRIRERPPRLPRPRPRPVEWPRP	-0.00804
RRIRTRPPRLPRPRPRPISRPRP	-0.0253
RRIRSRPPRLPRPRPRPASQPRP	0.0365
RRIRARPPRLPRPRPRPMLGPRP	0.211
RRIRSRPPRLPRPRPRPVLIPRP	-0.000674
RRIRLRPPRLPRPRPRPLQTPRP	0.101
RRIRTRPPRLPRPRPRPRVVPRP	1.87
RRIRARPPRLPRPRPRPTALPRP	0.513
RRIRSRPPRLPRPRPRPKMMPRP	-0.214
RRIRQRPPRLPRPRPRPADRPRP	0.0738
RRIRPRPPRLPRPRPRPESPPRP	0.161
RRIRDRPPRLPRPRPRPRILPRP	-0.116
RRIRRRPPRLPRPRPRPLVQPRP	0.355
RRIRLRPPRLPRPRPRPVRSPRP	0.53
RRIRIRPPRLPRPRPRPRVGPRP	0.334
RRIRTRPPRLPRPRPRPFIWPRP	-0.485
RRIRLRPPRLPRPRPRPQHHPRP	-0.54
RRIRARPPRLPRPRPRPWNDPRP	-0.158
RRIRMRPPRLPRPRPRPDAMPRP	2.44
RRIRHRPPRLPRPRPRPKFDPRP	-0.336

Sequence	shrunken log2 fold change
RRIRNRPPRLPRPRPRPDIDPRP	-0.0391
RRIRIRPPRLPRPRPRPCTDPRP	-0.143
RRIRLRPPRLPRPRPRPNGNPRP	-0.218
RRIRGRPPRLPRPRPRPPEKPRP	1.64
RRIRHRPPRLPRPRPRPLMHPRP	-0.414
RRIRLRPPRLPRPRPRPMNKPRP	-0.504
RRIRWRPPRLPRPRPRPIDNPRP	-0.406
RRIRIRPPRLPRPRPRPAHLPRP	0.117
RRIRCRPPRLPRPRPRPYDLPRP	-0.325
RRIRFRPPRLPRPRPRPNQWPRP	-0.21
RRIRIRPPRLPRPRPRPNTAPRP	-0.0523
RRIRFRPPRLPRPRPRPHRRPRP	0.189
RRIRERPPRLPRPRPRPQCNPRP	0.117
RRIRIRPPRLPRPRPRPCAWPRP	-0.0154
RRIRLRPPRLPRPRPRPCHKPRP	-0.278
RRIRCRPPRLPRPRPRPLDYPRP	-0.75
RRIRNRPPRLPRPRPRPNPRPRP	0.286
RRIRHRPPRLPRPRPRPSERPRP	-0.0252
RRIRDRPPRLPRPRPRPPTLPRP	-0.0573
RRIRRRPPRLPRPRPRPAVAPRP	0.66
RRIRTRPPRLPRPRPRPDKGPRP	0.0109
RRIRIRPPRLPRPRPRPRTYPRP	-0.726
RRIRARPPRLPRPRPRPEVIPRP	0.349
RRIRMRPPRLPRPRPRPVEDPRP	0.358
RRIRIRPPRLPRPRPRPFMRPRP	0.0516

Sequence	shrunken log2 fold change
RRIRERPPRLPRPRPRPCAEPRP	-0.0868
RRIRLRPPRLPRPRPRPHLNPRP	0.141
RRIRERPPRLPRPRPRPLVSPRP	-0.055
RRIRQRPPRLPRPRPRPYSHPRP	-0.0388
RRIRIRPPRLPRPRPRPPQCPRP	-0.244
RRIRFRPPRLPRPRPRPSKFPRP	-0.434
RRIRWRPPRLPRPRPRPFHHPRP	-0.077
RRIRVRPPRLPRPRPRPDNIPRP	-0.714
RRIRDRPPRLPRPRPRPDCKPRP	0.0499
RRIRMRPPRLPRPRPRPRIYPRP	-0.0363
RRIRKRPPRLPRPRPRPGTIPRP	-0.0588
RRIRYRPPRLPRPRPRPKRTPRP	-0.0162
RRIRARPPRLPRPRPRPSFEPRP	0.327
RRIRRRPPRLPRPRPRPIMQPRP	-0.0408
RRIRFRPPRLPRPRPRPFFFPRP	0.121
RRIRDRPPRLPRPRPRPHMEPRP	0.198
RRIRHRPPRLPRPRPRPTKVPRP	-0.0672
RRIRGRPPRLPRPRPRPQLEPRP	0.838
RRIRMRPPRLPRPRPRPCPAPRP	0.574
RRIRWRPPRLPRPRPRPTHRPRP	0.8
RRIRSRPPRLPRPRPRPGITPRP	-0.151
RRIRQRPPRLPRPRPRPITTPRP	-0.0809
RRIRRRPPRLPRPRPRPRARPRP	0.618
RRIRERPPRLPRPRPRPSQIPRP	0.012
RRIRKRPPRLPRPRPRPINYPRP	-0.0959

Sequence	shrunken log2 fold change
RRIRVRPPRLPRPRPRPSEPPRP	-0.11
RRIRARPPRLPRPRPRPCEKPRP	0.0244
RRIRARPPRLPRPRPRPSLLPRP	0.321
RRIRLRPPRLPRPRPRPPKQPRP	0.0446
RRIRCRPPRLPRPRPRPTFIPRP	-0.307
RRIRWRPPRLPRPRPRPNPDPRP	0.167
RRIRHRPPRLPRPRPRPKMTPRP	-0.519
RRIRWRPPRLPRPRPRPWVEPRP	0.0386
RRIRIRPPRLPRPRPRPMQRPRP	-0.129
RRIRKRPPRLPRPRPRPDAFPRP	0.00489
RRIRFRPPRLPRPRPRPDWHPRP	-0.152
RRIRHRPPRLPRPRPRPQDTPRP	-0.374
RRIRLRPPRLPRPRPRPPMKPRP	-0.144
RRIRSRPPRLPRPRPRPLMAPRP	0.000235
RRIRLRPPRLPRPRPRPQQLPRP	-0.106
RRIRWRPPRLPRPRPRPHTPPRP	0.0133
RRIRKRPPRLPRPRPRPNRFPRP	-0.0658
RRIRFRPPRLPRPRPRPTWCPRP	-0.0549
RRIRKRPPRLPRPRPRPWYSPRP	-0.234
RRIRQRPPRLPRPRPRPMQRPRP	0.416
RRIRMRPPRLPRPRPRPETIPRP	0.0625
RRIRWRPPRLPRPRPRPRHCPRP	0.0392
RRIRERPPRLPRPRPRPMHKPRP	0.0621
RRIRLRPPRLPRPRPRPIYSPRP	0.0408
RRIRPRPPRLPRPRPRPVPFPRP	-0.303

Sequence	shrunken log2 fold change
RRIRTRPPRLPRPRPRPVLWPRP	0.117
RRIRHRPPRLPRPRPRPPWYPRP	-0.232
RRIRYRPPRLPRPRPRPHSPPRP	-0.0755
RRIRMRPPRLPRPRPRPDHFPRP	-0.0876
RRIRKRPPRLPRPRPRPHDKPRP	0.176
RRIRDRPPRLPRPRPRPQNVPRP	-0.01
RRIRMRPPRLPRPRPRPKPNPRP	0.954
RRIRNRPPRLPRPRPRPKWRPRP	0.792
RRIRQRPPRLPRPRPRPMKNPRP	-0.124
RRIRLRPPRLPRPRPRPHCCPRP	-0.376
RRIRNRPPRLPRPRPRPDGLPRP	0.038
RRIRKRPPRLPRPRPRPLISPRP	0.0452
RRIRTRPPRLPRPRPRPVVKPRP	-0.189
RRIRCRPPRLPRPRPRPSTGPRP	-0.354
RRIRNRPPRLPRPRPRPVNAPRP	0.16
RRIRCRPPRLPRPRPRPSPRPRP	0.485
RRIRTRPPRLPRPRPRPMFCPRP	-0.628
RRIRGRPPRLPRPRPRPKTVPRP	0.662
RRIRNRPPRLPRPRPRPEIGPRP	0.195
RRIRWRPPRLPRPRPRPPVFPRP	0.384
RRIRKRPPRLPRPRPRPFFIPRP	-0.061
RRIRGRPPRLPRPRPRPCHGPRP	-0.355
RRIRRRPPRLPRPRPRPHPPPRP	0.746
RRIRERPPRLPRPRPRPAMRPRP	0.59
RRIRYRPPRLPRPRPRPCGPPRP	-0.436
